According to patent publication US20230383269A1 (DSM AUSTRIA, published 2023):
Substitutions are numbered along the chain they refer to. In names and notes the source's numbering stands.

B1: alpha/beta hydrolase variant of SEQ ID NO: 16 (N167T, F168Y, S174C, D179E, A182C, A183R, K186R, A187R, F218Y, Q268L, V306I) (enzyme)
chain: MTDQSPETRDIFVPHAFEEQQVDLGEVVMNYVEAGSADHPALLLLPEQTGSWWSYEPVIGLLAESFHVFAVDIRGQGRSTWTPKRYSLDNFGNDLVRFISLVVKRPVIVSGNSSGGVLAAWLSAYAMPGQIRAALCEDTPFFASELVPAHGHSVRQAAGPAFELYRTYLGDQWCVADWEGFCRAARRSPSKIMSLFPSSDEPPQNLKEYDPEWARAFYEGTVALHCPHDLMLSQVKTPILITHHARAVDPHSGDLLGALSDFQAERALAIIESAGVPVEYASFPDALHMMHQFEPERFAEVLTSWIARLPADTPGAHHHHHH
notes: homo-tetramer; also called zearalenone-cleaving polypeptide
B2: alpha/beta hydrolase variant of SEQ ID NO: 22 (P57E, V58A, I59M, N167T, F168Y, S174C, D179E, A182C, A183R, K186R, A187R, F218Y) (enzyme)
chain: B1 chain with P57E, V58A, I59M, L268Q, I306V
notes: as for B1
B3: alpha/beta hydrolase variant of SEQ ID NO: 23 (A63S, S65H, N167T, F168Y, S174C, D179E, A182C, A183R, K186R, A187R, F218Y) (enzyme)
chain: B1 chain with A63S, S65H, L268Q, I306V
notes: as for B1
B4: alpha/beta hydrolase variant of SEQ ID NO: 21 (E47S, G50E, N167T, F168Y, S174C, D179E, A182C, A183R, K186R, A187R, F218Y) (enzyme)
chain: B1 chain with E47S, G50E, L268Q, I306V
notes: as for B1
B5: alpha/beta hydrolase variant of SEQ ID NO: 18 (F17Y, I59M, N167T, F168Y, S174C, D179E, A182C, A183R, K186R, A187R, F218Y) (enzyme)
chain: B1 chain with F17Y, I59M, L268Q, I306V
notes: as for B1
B6: alpha/beta hydrolase variant of SEQ ID NO: 32 (N167T, F168Y, S174C, D179E, A182C, A183R, K186R, A187R, F218Y, L287T, M289S) (enzyme)
chain: B1 chain with L268Q, L287T, M289S, I306V
notes: as for B1
B7: alpha/beta hydrolase variant of SEQ ID NO: 10 (R155K, N167T, S174C, V175A) (enzyme)
chain: MTDQSPETRDIFVPHAFEEQQVDLGEVVMNYVEAGSADHPALLLLPEQTGSWWSYEPVIGLLAESFHVFAVDIRGQGRSTWTPKRYSLDNFGNDLVRFISLVVKRPVIVSGNSSGGVLAAWLSAYAMPGQIRAALCEDTPFFASELVPAHGHSVKQAAGPAFELYRTFLGDQWCAADWDGFAAAAKASPSKIMSLFPSSDEPPQNLKEYDPEWARAFFEGTVALHCPHDLMLSQVKTPILITHHARAVDPHSGDLLGALSDFQAERAQAIIESAGVPVEYASFPDALHMMHQFEPERFAEVLTSWVARLPADTPGAHHHHHH
notes: as for B1
B8: alpha/beta hydrolase variant of SEQ ID NO: 20 (H39R, N167T, F168Y, S174C, D179E, A182C, A183R, K186R, A187R, F218Y) (enzyme)
chain: B1 chain with H39R, L268Q, I306V
notes: as for B1
B9: alpha/beta hydrolase variant of SEQ ID NO: 6 (N167C) (enzyme)
chain: B7 chain with K155R, T167C, C174S, A175V
notes: as for B1
B10: alpha/beta hydrolase variant of SEQ ID NO: 26 (T139P N167T, F168Y, S174C, D179E, A182C, A183R, K186R, A187R, F218Y) (enzyme)
chain: B1 chain with T139P, L268Q, I306V
notes: as for B1
B11: alpha/beta hydrolase variant of SEQ ID NO: 5 (N167A) (enzyme)
chain: B7 chain with K155R, T167A, C174S, A175V
notes: as for B1
B12: alpha/beta hydrolase variant of SEQ ID NO: 27 (N167T, F168Y, S174C, D179E, A182C, A183R, K186R, A187R, F218Y, H225S) (enzyme)
chain: B1 chain with H225S, L268Q, I306V
notes: as for B1
B13: alpha/beta hydrolase variant of SEQ ID NO: 29 (N167T, F168Y, S174C, D179E, A182C, A183R, K186R, A187R, F218Y, A245V) (enzyme)
chain: B1 chain with A245V, L268Q, I306V
notes: as for B1
B14: alpha/beta hydrolase variant of SEQ ID NO: 34 (N167T, F168Y, S174C, D179E, A182C, A183R, K186R, A187R, F218Y, S304R) (enzyme)
chain: B1 chain with L268Q, S304R, I306V
notes: as for B1
B15: alpha/beta hydrolase variant of SEQ ID NO: 30 (N167T, F168Y, S174C, D179E, A182C, A183R, K186R, A187R, F218Y, H251E) (enzyme)
chain: B1 chain with H251E, L268Q, I306V
notes: as for B1
B16: alpha/beta hydrolase variant of SEQ ID NO: 28 (N167T, F168Y, S174C, D179E, A182C, A183R, K186R, A187R, F218Y L230R) (enzyme)
chain: B1 chain with L230R, L268Q, I306V
notes: as for B1
B17: alpha/beta hydrolase variant of SEQ ID NO: 14 (N167T, F168Y, S174C) (enzyme)
chain: B7 chain with K155R, F168Y, A175V
notes: as for B1
B18: alpha/beta hydrolase variant of SEQ ID NO: 13 (N167T, S174C, F218Y) (enzyme)
chain: B7 chain with K155R, A175V, F218Y
notes: as for B1
B19: alpha/beta hydrolase variant of SEQ ID NO: 4 (N167S) (enzyme)
chain: B7 chain with K155R, T167S, C174S, A175V
notes: as for B1
B20: alpha/beta hydrolase variant of SEQ ID NO: 12 (N167S, S174C) (enzyme)
chain: B7 chain with K155R, T167S, A175V
notes: as for B1
B21: alpha/beta hydrolase variant of SEQ ID NO: 3 (N167T) (enzyme)
chain: B7 chain with K155R, C174S, A175V
notes: as for B1
B22: alpha/beta hydrolase variant of SEQ ID NO: 31 (N167T, F168Y, S174C, D179E, A182C, A183R, K186R, A187R, F218Y, A281E) (enzyme)
chain: B1 chain with L268Q, A281E, I306V
notes: as for B1
B23: alpha/beta hydrolase variant of SEQ ID NO: 15 (N167T, F168Y, S174C, D179E, A182C, A183R, K186R, A187R, F218Y) (enzyme)
chain: B1 chain with L268Q, I306V
notes: as for B1
B24: alpha/beta hydrolase variant of SEQ ID NO: 8 (N167T, S174T) (enzyme)
chain: B7 chain with K155R, C174T, A175V
notes: as for B1
B25: alpha/beta hydrolase variant of SEQ ID NO: 19 (V28T, N167T, F168Y, S174C, D179E, A182C, A183R, K186R, A187R, F218Y) (enzyme)
chain: B1 chain with V28T, L268Q, I306V
notes: as for B1
B26: alpha/beta hydrolase variant of SEQ ID NO: 9 (N167T, S174C) (enzyme)
chain: B7 chain with K155R, A175V
notes: as for B1
B27: alpha/beta hydrolase variant of SEQ ID NO: 25 (A126S, N167T, F168Y, S174C, D179E, A182C, A183R, K186R, A187R, F218Y) (enzyme)
chain: B1 chain with A126S, L268Q, I306V
notes: as for B1
B28: alpha/beta hydrolase variant of SEQ ID NO: 11 (R155K, N167T, S174C, V175T) (enzyme)
chain: B7 chain with A175T
notes: as for B1
B29: alpha/beta hydrolase variant of SEQ ID NO: 7 (N167L) (enzyme)
chain: B7 chain with K155R, T167L, C174S, A175V
notes: as for B1
B30: alpha/beta hydrolase variant of SEQ ID NO: 2 (N167T, F168Y, S174C, F218Y) (enzyme)
chain: B7 chain with K155R, F168Y, A175V, F218Y
notes: as for B1
B31: alpha/beta hydrolase variant of SEQ ID NO: 33 (N167T, F168Y, S174C, D179E, A182C, A183R, K186R, A187R, F218Y, S293S) (enzyme)
chain: B1 chain with L268Q, F293S, I306V
notes: as for B1
B32: alpha/beta hydrolase variant of SEQ ID NO: 24 (F69Y, N167T, F168Y, S174C, D179E, A182C, A183R, K186R, A187R, F218Y) (enzyme)
chain: B1 chain with F69Y, L268Q, I306V
notes: as for B1
B33: alpha/beta hydrolase variant of SEQ ID NO: 17 (D10N, N167T, F168Y, S174C, D179E, A182C, A183R, K186R, A187R, F218Y) (enzyme)
chain: B1 chain with D10N, L268Q, I306V
notes: as for B1

Biological target: the molecule itself
Experiment: Blue-Native-PAGE, oligomeric conformation (self-association of identical chains)
Source text: Comparison of the native molecular weight (oligomeric conformation) between single purified zearalenone-cleaving polypeptides was done via Blue-Native-PAGE. Dilutions of the elutes were supplied with not denaturating loading dye (e.g. 2× loading dye: 0.126 M tris(hydroxymethyl)aminomethan/hydrochloric acid pH 6.8, 20.0% glycerol, 4.0% Coomassie Blue G-250) and separated on a 4-15% polyacrylamid gel under native conditions (e.g. Mini-PROTEAN® Tetra Cell System, 1658004EDU+4-15% Mini-PROTEAN® TGX™ Precast Protein Gels, 4561083EDU, Bio-Rad Laboratories GmbH) (5× Anode Buffer: 0.125 M Tris(hydroxymethyl)aminomethane, 0.960 M Glycine, 1× Kathode Buffer: Anode Buffer+0.02% Coomassie Blue G250; 200 V, 40 minutes). The peptide bands were visualized by Coomassie staining. The oligomeric state of selected zearalenone-cleaving polypeptides was determined by size exclusion chromatography, SEC-MALS or X-Ray crystallography. Homo-dimers (e.g. SEQ ID NO. 1) migrated faster across the BN-PAGE gel matrix, while homo-tetramers (e.g. SEQ ID NO. 2-35) were retained in the gel matrix to a higher extent. The oligomeric conformation of the zearalenone-cleaving polypeptides was determined relatively to the migration of homo-dimeric and homo-tetrameric peptides.

Binding result, binds:
B1, B2, B3, B4, B5, B6, B7, B8, B9, B10, B11, B12, B13, B14, B15, B16, B17, B18, B19, B20, B21, B22, B23, B24, B25, B26, B27, B28, B29, B30, B31, B32, B33
